Assay [1] addresses human MASP-2 (in normal human serum) (human, UniProt O00187 16-686). The assay is described as follows: cell-based or functional assay.
For assay [2], the target named is rat MASP-2 (in rat serum) (rat, UniProt Q9JJS8 20-685). The assay is described as follows: cell-based or functional assay.
The target in assay [3] is T1, human MASP-2cf CCP1-CCP2-SP (human, UniProt O00187 298-686, limits assumed).
T1 construct: domain: CCP1-CCP2-SP; also called human MASP-2 catalytic fragment
The assay is described as follows: SPR, target immobilised.

The target in assay [4] is T2, rat MASP-2cf CCP1-CCP2-SP (rat, UniProt Q9JJS8 298-685).
T2 construct: range 298-685; Mw 42309 Da; also called rat MASP-2 catalytic fragment
The assay is described as follows: SPR, target immobilised. For orientation: Surface plasmon resonance follows binding to a sensor surface in real time, without labels.

Where no end group is shown, it is not given here.

Chain of rat MASP-2 (in rat serum) (Q9JJS8 20-685 limits assumed): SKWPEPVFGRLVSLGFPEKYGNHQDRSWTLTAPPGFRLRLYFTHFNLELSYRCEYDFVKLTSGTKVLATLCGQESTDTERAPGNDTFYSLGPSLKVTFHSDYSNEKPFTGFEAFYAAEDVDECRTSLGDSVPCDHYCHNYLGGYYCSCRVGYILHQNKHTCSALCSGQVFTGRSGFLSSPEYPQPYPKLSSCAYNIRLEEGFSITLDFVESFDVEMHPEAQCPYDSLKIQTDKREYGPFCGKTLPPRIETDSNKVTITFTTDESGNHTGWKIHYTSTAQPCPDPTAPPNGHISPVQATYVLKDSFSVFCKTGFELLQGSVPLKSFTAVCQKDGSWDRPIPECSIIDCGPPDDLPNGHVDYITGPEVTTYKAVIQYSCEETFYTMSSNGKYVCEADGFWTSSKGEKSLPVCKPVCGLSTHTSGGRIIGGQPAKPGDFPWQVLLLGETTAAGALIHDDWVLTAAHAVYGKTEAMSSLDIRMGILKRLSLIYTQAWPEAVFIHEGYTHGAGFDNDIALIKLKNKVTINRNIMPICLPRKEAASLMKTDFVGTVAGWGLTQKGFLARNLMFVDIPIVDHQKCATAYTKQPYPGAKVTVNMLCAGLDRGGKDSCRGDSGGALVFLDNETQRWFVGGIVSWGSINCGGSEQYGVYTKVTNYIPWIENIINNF
Chain of human MASP-2 (in normal human serum) (O00187 16-686 limits assumed): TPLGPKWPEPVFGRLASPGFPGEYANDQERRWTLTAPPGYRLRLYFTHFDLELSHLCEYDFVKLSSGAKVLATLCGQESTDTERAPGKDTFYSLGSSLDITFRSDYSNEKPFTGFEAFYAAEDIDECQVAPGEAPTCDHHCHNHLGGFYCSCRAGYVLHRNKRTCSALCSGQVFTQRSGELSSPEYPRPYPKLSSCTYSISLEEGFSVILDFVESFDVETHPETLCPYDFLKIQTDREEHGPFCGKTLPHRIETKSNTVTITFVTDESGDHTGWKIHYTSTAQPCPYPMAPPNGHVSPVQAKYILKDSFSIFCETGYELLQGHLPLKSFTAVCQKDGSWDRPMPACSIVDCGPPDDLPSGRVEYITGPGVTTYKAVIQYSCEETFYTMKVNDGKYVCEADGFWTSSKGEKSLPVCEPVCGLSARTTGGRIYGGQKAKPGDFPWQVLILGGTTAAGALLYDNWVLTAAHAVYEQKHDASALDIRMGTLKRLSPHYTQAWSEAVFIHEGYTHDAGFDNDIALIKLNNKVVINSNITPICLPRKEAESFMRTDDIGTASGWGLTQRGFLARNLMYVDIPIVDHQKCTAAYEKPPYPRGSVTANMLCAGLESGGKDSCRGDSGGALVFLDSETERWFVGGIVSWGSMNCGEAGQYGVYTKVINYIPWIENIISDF
T2 sequence (Q9JJS8 other isoform, or with tags, fused parts or gaps limits assumed, form in doubt): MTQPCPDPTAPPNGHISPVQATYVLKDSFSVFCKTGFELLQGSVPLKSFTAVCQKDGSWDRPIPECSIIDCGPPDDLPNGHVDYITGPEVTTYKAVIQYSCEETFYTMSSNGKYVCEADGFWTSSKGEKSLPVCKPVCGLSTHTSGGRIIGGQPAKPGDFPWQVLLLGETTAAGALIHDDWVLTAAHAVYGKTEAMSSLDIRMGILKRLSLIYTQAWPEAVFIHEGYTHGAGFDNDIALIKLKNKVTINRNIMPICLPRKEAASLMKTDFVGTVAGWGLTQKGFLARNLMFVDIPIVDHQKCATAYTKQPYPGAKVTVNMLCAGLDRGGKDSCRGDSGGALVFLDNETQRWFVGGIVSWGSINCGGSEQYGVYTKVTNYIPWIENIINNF
T1 sequence (O00187 298-686 limits assumed): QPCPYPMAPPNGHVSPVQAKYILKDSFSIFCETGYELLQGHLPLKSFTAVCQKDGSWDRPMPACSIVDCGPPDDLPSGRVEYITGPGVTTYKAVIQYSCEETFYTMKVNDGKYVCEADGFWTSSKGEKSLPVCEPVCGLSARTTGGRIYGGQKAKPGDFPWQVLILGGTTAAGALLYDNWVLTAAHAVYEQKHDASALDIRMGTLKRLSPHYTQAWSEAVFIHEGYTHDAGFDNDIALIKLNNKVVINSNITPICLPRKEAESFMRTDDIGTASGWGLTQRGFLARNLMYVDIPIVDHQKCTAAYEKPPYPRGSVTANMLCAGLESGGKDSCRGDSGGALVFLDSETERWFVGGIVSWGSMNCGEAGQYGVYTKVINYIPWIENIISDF

B1: EVO2a (designed binder)
chain: KPDFCFLENDPGPCRAVKRRYFYNNQTKQCERFKYGGCLGNMNNFETLEECKNICEDG
modifications: not fully specified; cysteine pairing not given here
notes: Modified TFPI-D2 Kunitz domain; made as m1
By Kd is commonly meant a measure of binding affinity in units of concentration. Read a high Kd as weaker binding. By koff is commonly meant the first-order rate constant of dissociation. Read a low koff as slow dissociation. What is called kon is the rate constant with which the complex forms. The low end stands for slower complex formation, the high end for faster complex formation. In the case of B1, in assay [1], the “IC50, lectin pathway C4 deposition, human serum” value (“IC50 … human serum” for short) was determined as 215 nM and the “Relative potency, lectin pathway, human serum” value (shortened to “Relative potency … human serum”) is 0.6 fold vs EVO2. Besides, in assay [2], the “IC50, lectin pathway C4 deposition, rat serum” value (from here on “IC50 … rat serum”) was found to be 213 nM and the “Relative potency, lectin pathway, rat serum” value (“Relative potency … rat serum” for short) is 0.5 fold vs EVO2. In assay [3], the Kd is 2.95 nM, the Relative affinity is 0.6 fold vs EVO2, the koff was 0.0021 s⁻¹ and the kon is 711000 M⁻¹ s⁻¹. For the same molecule, in assay [4], the Kd turned out to be 4.73 nM, the Relative affinity turned out to be 0.8 fold vs EVO2, the koff was found to be 0.00151 s⁻¹ and the kon stood at 319000 M⁻¹ s⁻¹.

B2: EVO21d (designed binder)
chain: KPDFCFLEEDPGPCRALKRRYFYNNQTKQCERFSYGGCFGNMNNFVTLEECKNICEDG
modifications: not fully specified; cysteine pairing not given here
In the case of B2, in assay [1], the “IC50 … human serum” value was found to be 8.3 nM and the “Relative potency … human serum” value is 16.6 fold vs EVO2. In assay [2], the “IC50 … rat serum” value worked out at 25.9 nM and the “Relative potency … rat serum” value came out at 4.1 fold vs EVO2.

B3: EVO216 (designed binder)
chain: KPDFCFLENDPGWCRAAKLRYFYNNQTKQCERFGYGGCLGNMNNFVTLEECKNICEDG
modifications: not fully specified; cysteine pairing not given here
notes: as for B1
In the case of B3, in assay [1], the “IC50 … human serum” value stood at 30.9 nM and the “Relative potency … human serum” value came out at 4.5 fold vs EVO2. Besides, in assay [3], the Kd was determined as 0.76 nM, the Relative affinity was found to be 2.4 fold vs EVO2, the koff is 0.000732 s⁻¹ and the on-rate (kon) was 963000 M⁻¹ s⁻¹.

B4: EVO22b (designed binder)
chain: KPDFCFLENDPGPCRALARRYFYNNQTKQCERFYYGGCLGNMNNFVTLEECKNICEDG
modifications: not fully specified; cysteine pairing not given here
notes: as for B1
Take B4: in assay [1], the “IC50 … human serum” value came out at 13.7 nM and the “Relative potency … human serum” value came out at 10 fold vs EVO2. Also, in assay [2], the “IC50 … rat serum” value amounted to 9.7 nM and the “Relative potency … rat serum” value came out at 11 fold vs EVO2. Besides, in assay [3], the Kd was 0.21 nM, the Relative affinity was 8.5 fold vs EVO2, the koff came to 0.00026 s⁻¹ and the kon amounted to 1.24e+06 M⁻¹ s⁻¹. In assay [4], this molecule came in with a dissociation constant (Kd) of 0.163 nM, a Relative affinity of 22.3 fold vs EVO2, a koff of 0.000159 s⁻¹ and an on-rate constant (kon) of 975000 M⁻¹ s⁻¹.

B5: EVO22a (designed binder)
chain: KPDFCFLENDPGPCRAAKRRYFYNNQTKQCERFYYGGCLGNMNNFVTLEECKNICEDG
notes: as for B1
For B5, in assay [1], the “IC50 … human serum” value is 3.7 nM and the “Relative potency … human serum” value was found to be 37.1 fold vs EVO2. Moreover, in assay [2], the “IC50 … rat serum” value stood at 10.6 nM and the “Relative potency … rat serum” value worked out at 10 fold vs EVO2. Also, in assay [3], the Relative affinity was 40.1 fold vs EVO2, the koff is 9.09e-05 s⁻¹ and the kon came to 2.04e+06 M⁻¹ s⁻¹. Besides, in assay [4], the Kd was 0.192 nM, the Relative affinity was determined as 18.9 fold vs EVO2, the koff is 0.000163 s⁻¹ and the kon stood at 847000 M⁻¹ s⁻¹.

B6: EVO215 (designed binder)
chain: KPDFCFLENDPGWCRAAKRRYFYNNQTKQCERFGYGGCLGNMNNFVTLEECKNICEDG
modifications: not fully specified; ends and bridges not checked
notes: as for B1
As to B6, in assay [1], the “IC50 … human serum” value turned out to be 22.7 nM and the “Relative potency … human serum” value was determined as 6.1 fold vs EVO2. In addition, in assay [3], the Kd came out at 0.304 nM, the Relative affinity came out at 5.9 fold vs EVO2, the koff is 0.000559 s⁻¹ and the association rate constant (kon) came to 1.84e+06 M⁻¹ s⁻¹.

B7: EVO2d (designed binder)
chain: KPDFCFLEEDPGPCRALKRRYFYNNQTKQCERFKYGGCLGNMNNFETLEECKNICEDG
modifications: not fully specified; cysteine pairing not given here
notes: as for B1
As to B7, in assay [1], the “IC50 … human serum” value was 60.3 nM and the “Relative potency … human serum” value came out at 2.3 fold vs EVO2. For the same molecule, in assay [2], the “IC50 … rat serum” value is 70.9 nM and the “Relative potency … rat serum” value came to 1.5 fold vs EVO2. Moreover, in assay [3], the Kd is 1.19 nM, the Relative affinity amounted to 1.5 fold vs EVO2, the koff amounted to 0.00108 s⁻¹ and the association rate constant (kon) came out at 909000 M⁻¹ s⁻¹. In addition, in assay [4], the Kd was 1.08 nM, the Relative affinity is 3.4 fold vs EVO2, the koff was 0.000438 s⁻¹ and the kon came to 405000 M⁻¹ s⁻¹.

B8: EVO2b (designed binder)
chain: KPDFCFLEEDPGPCRAVKRRYFYNNQTKQCERFGYGGCLGNMNNFETLEECKNICEDG
modifications: not fully specified; cysteine pairing not given here
notes: as for B1
Turning to B8, in assay [1], the “IC50 … human serum” value turned out to be 62.7 nM and the “Relative potency … human serum” value came out at 2.2 fold vs EVO2. In assay [2], the “IC50 … rat serum” value was 34.3 nM and the “Relative potency … rat serum” value turned out to be 3.1 fold vs EVO2. In assay [3], the Kd came to 1.97 nM, the Relative affinity is 0.9 fold vs EVO2, the koff amounted to 0.00156 s⁻¹ and the kon was 790000 M⁻¹ s⁻¹. Moreover, in assay [4], the Kd turned out to be 1.95 nM, the Relative affinity was 1.9 fold vs EVO2, the koff stood at 0.000942 s⁻¹ and the kon is 484000 M⁻¹ s⁻¹.

B9: EVO2c (designed binder)
chain: KPDFCFLEEDPGPCRAVKRRYFYNNQTKQCERFYYGGCLGNMNNFETLEECKNICEDG
modifications: not fully specified; cysteine pairing not given here
notes: as for B1
Consider B9, for which, in assay [1], the “IC50 … human serum” value was found to be 22.3 nM and the “Relative potency … human serum” value was 6.2 fold vs EVO2. Besides, in assay [2], the “IC50 … rat serum” value is 34.3 nM and the “Relative potency … rat serum” value is 3.1 fold vs EVO2. Moreover, in assay [3], the Kd came to 1.04 nM, the Relative affinity was 1.7 fold vs EVO2, the koff was 0.00161 s⁻¹ and the kon is 1.55e+06 M⁻¹ s⁻¹. Besides, in assay [4], the affinity, expressed as Kd, was 1.31 nM; the Relative affinity worked out at 2.8 fold vs EVO2; the koff was found to be 0.000978 s⁻¹; the kon came out at 747000 M⁻¹ s⁻¹.

B10: EVO211 (designed binder)
chain: KPDFCFLENDPGWCRALKRRYFYNNQTKQCERFGYGGCLGNMNNFVTLEECKNICEDG
modifications: not fully specified; ends and bridges not checked
notes: as for B1
Regarding B10, in assay [1], the “IC50 … human serum” value is 3.1 nM and the “Relative potency … human serum” value amounted to 44 fold vs EVO2. In assay [2], the “IC50 … rat serum” value amounted to 53.2 nM and the “Relative potency … rat serum” value was determined as 2 fold vs EVO2. In assay [3], the affinity, expressed as Kd, was 0.043 nM; the Relative affinity amounted to 41.6 fold vs EVO2; the koff came to 6.62e-05 s⁻¹; the association rate constant (kon) was 1.54e+06 M⁻¹ s⁻¹. In assay [4], the affinity, expressed as Kd, was 2.87 nM; the Relative affinity was found to be 1.3 fold vs EVO2; the koff came to 0.0027 s⁻¹; the kon was 942000 M⁻¹ s⁻¹.

The values are drawn from patent US20260098080A1, “A MODIFIED PROTEIN SCAFFOLD AND USE THEREOF” (EVOLVERITAS BIOTECHNOLÓGIAI KORLÁTOLT FELELOSSÉGU TÁRSASÁG, priority 2022, published 2026).
